Where two headings read alike, the source gives them in different places.
Legend:
[1] = target: recombinant human IgE, SE44 (human) (UniProt P01854); experiment: ELISA titration on plate-coated SE44 (human IgE); Fab detected with biotin-sheep anti-human Fd and Neutra-avidin-AP (Example 6)
[2] = target: recombinant human IgE, SE44 (human) (UniProt P01854); experiment: as above; remark: listed apart in the source

- EC50 (read off the curve) [1]: 0.04 µg/mL
- EC50 (read off the curve) [2]: 0.05 µg/mL
B1: murine TES-C21 Fab (Fab, from another filing, V domains shown)
VH: QVQLQQSGAELMKPGASVKISCKTTGYTFSMYWLEWVKQRPGHGLEWVGEISPGTFTTNYNEKFKAKATFTADTSSNTAYLQLSGLTSEDSAVYFCARFSHFSGSNYDYFDYWGQGTSLTVSS
VL: DILLTQSPAILSVSPGERVSFSCRASQSIGTNIHWYQQRTDGSPRLLIKYASESISGIPSRFSGSGSGTEFTLNINSVESEDIADYYCQQSDSWPTTFGGGTKLEIK
